From patent publication US6635738

Assays:
[1] = target: IL-1β in PC12 cell cultures; experiment: cell-based or functional assay
[2] = target: IL-1 receptor on PC12 cells; experiment: cell-based or functional assay
[3] = target: Recombinant human pro-IL-1β, P01584
Sequence of Recombinant human pro-IL-1β, P01584 (P01584 whole entry, looked up): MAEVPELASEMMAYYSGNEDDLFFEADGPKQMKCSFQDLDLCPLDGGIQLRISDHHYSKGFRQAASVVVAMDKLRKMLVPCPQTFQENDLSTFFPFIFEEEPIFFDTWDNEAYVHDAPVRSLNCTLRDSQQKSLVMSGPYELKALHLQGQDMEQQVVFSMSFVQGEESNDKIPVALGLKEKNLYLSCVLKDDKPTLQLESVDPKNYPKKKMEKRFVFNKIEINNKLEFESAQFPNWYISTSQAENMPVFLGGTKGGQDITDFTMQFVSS

Q: With “Blocking monoclonal hamster anti-mouse IL-1β antibody (Genzyme)” as the molecule, how does the suppression of death of V-ASOD1 treated (SOD1 deficient) PC12 cells; antibody concentration used [1] read?
A: The suppression of death of V-ASOD1 treated (SOD1 deficient) PC12 cells; antibody concentration used was 30 µg/mL.

Q: Which suppression of death of V-ASOD1 treated (SOD1 deficient) PC12 cells; antagonist concentration used [2] does the source give for “IL-1 receptor antagonist (rmIL-1Ra) (from UniProt P25085 27-178) (ligand)” here?
A: Its suppression of death of V-ASOD1 treated (SOD1 deficient) PC12 cells; antagonist concentration used is 100 ng/mL.

B1: Recombinant human ICE (interleukin 1β converting enzyme) (protein)
chain: NPAMPTSSGSEGNVKLCSLEEAQRIWKQKSAEIYPIMDKSSRTRLALIICNEEFDSIPRRTGAEVDITGMTMLLQNLGYSVDVKKNLTASDMTTELEAFAHRPEHKTSDSTFLVFMSHGIREGICGKKHSEQVPDILQLNAIFNMLNTKNCPSLKDKPKVIIIQACRGDSPGVVWFKDSVGVSGNLSLPTTEEFEDDAIKKAHIEKDFIAFCSSTPDNVSWRHPTMGSVFIGRLIEHMQEYACSCDVEEIFRKVRFSFEQPDGRAQMPTTERVTLTRCFYLFPGH
Q: For B1, which “cleavage of pro-IL-1β by ICE in vitro (SDS-PAGE and immunoblot)” value [3] is on record?
A: The value was “There is some cleavage in the presence of the inhibitor but much less than seen with ICE alone”.
